From patent US20050032180A1, “Method for the production of (r)-and (s)-8-chloro-6-hydroxy-octanic acid alkyl esters by enzymatic reduction” (priority 2001, published 2005)
Blank lines part the entries; values can stand above or below the molecule they belong to.

Assay: analytical assay of enzyme activity with compounds of the formula I as substrate
Type: biochemical
Protocol: The configuration of the resulting 8-chloro-6-hydroxyoctanoic acid alkyl esters is determined by the enzyme employed. Thus, reduction of 8-chloro-6-oxooctanoic acid alkyl esters using alcohol dehydrogenase from Thermoanaeorubium brokii results in enantiopure (R)-8-chloro-6-hydroxyoctanoic acid alkyl esters. In the case of reduction using Lactobacillus brevis alcohol dehydrogenase, there is enantioselective formation of (S)-8-chloro-6-hydroxyoctanoic acid alkyl esters (ee>65%).

- Activity (Standard 2-butanone, cofactor NADP(H), 50 mM Tris, 1 mM DTT, pH 7.8, HCO2Na, FDH, 37° C.): 6%
B1: TBADH: Thermoanaerobium brokii ADH, commercially available (protein, UniProt P14941 1-352, looked up)
NADP-dependent isopropanol …: MKGFAMLSIGKVGWIEKEKPAPGPFDAIVRPLAVAPCTSDIHTVFEGAIGERHNMILGHEAVGEVVEVGSEVKDFKPGDRVVVPAITPDWRTSEVQRGYHQHSGGMLAGWKFSNVKDGVFGEFFHVNDADMNLAHLPKEIPLEAAVMIPDMMTTGFHGAELADIELGATVAVLGIGPVGLMAVAGAKLRGAGRIIAVGSRPVCVDAAKYYGATDIVNYKDGPIESQIMNLTEGKGVDAAIIAGGNADIMATAVKIVKPGGTIANVNYFGEGEVLPVPRLEWGCGMAHKTIKGGLCPGGRLRMERLIDLVFYKRVDPSKLVTHVFRGFDNIEKAFMLMKDKPKDLIKPVVILA

- Activity (Standard acetophenone, cofactor NADP(H), 50 mM Kpi, 0.1 mM MgCl2, pH 7.0, iso-propanol 200 mM): 10%
B2: LKADH: Lactobacillus kefir ADH, commercially available (protein, UniProt Q6WVP7 1-252, looked up)
NADP-dependent (R)-specific …: MTDRLKGKVAIVTGGTLGIGLAIADKFVEEGAKVVITGRHADVGEKAAKSIGGTDVIRFVQHDASDEAGWTKLFDTTEEAFGPVTTVVNNAGIAVSKSVEDTTTEEWRKLLSVNLDGVFFGTRLGIQRMKNKGLGASIINMSSIEGFVGDPTLGAYNASKGAVRIMSKSAALDCALKDYDVRVNTVHPGYIKTPLVDDLEGAEEMMSQRTKTPMGHIGEPNDIAWICVYLASDESKFATGAEFVVDGGYTAQ

- Activity (Standard 2-butanone, cofactor NAD(H), 100 mM TEA, pH 7.0): 20%
B3: Y-ADH: yeast alcohol dehydrogenase, commercially available (protein, UniProt P00330 2-348, looked up)
Alcohol dehydrogenase 1: SIPETQKGVIFYESHGKLEYKDIPVPKPKANELLINVKYSGVCHTDLHAWHGDWPLPVKLPLVGGHEGAGVVVGMGENVKGWKIGDYAGIKWLNGSCMACEYCELGNESNCPHADLSGYTHDGSFQQYATADAVQAAHIPQGTDLAQVAPILCAGITVYKALKSANLMAGHWVAISGAAGGLGSLAVQYAKAMGYRVLGIDGGEGKEELFRSIGGEVFIDFTKEKDIVGAVLKATDGGAHGVINVSVSEAAIEASTRYVRANGTTVLVGMPAGAKCCSDVFNQVVKSISIVGSYVGNRADTREALDFFARGLVKSPIKVVGLSTLPEIYEKMEKGQIVGRYVVDTSK
